The values below come from patent US6124125A, “AMP activated protein kinase” (Trustees of Dartmouth College, priority 1996, dated 2000).

The subject of one data set is AMPK. Kind of data set: AMPK protein kinase assay: phosphorylation of synthetic peptide substrates by partially purified enzyme (DE-52 step). The conditions noted are these: for rate of phosphorylation relative to the SAMS peptide: partially purified enzyme (purified to the DE-52 step), % of the rate of the SAMS peptide; for Km: peptide as substrate of AMPK, read-out: apparent Km as substrate for the AMPK. In kind it is biochemical, porcine. The source says: A series of synthetic peptides including analogues of proteins […] to be substrates for the AMPK were screened with partially purified enzyme (purified to the DE-52 step). These included the myosin light chains, ADR1, glycogen synthase and phospholemman. The phospholemman peptides tested were poor substrates and not investigated further. The glycogen synthase peptide, PLSRTLSVAAKK (SEQ ID NO: 46) was phosphorylated in an AMP-dependent manner at approximately 40% of the rate of the SAMS peptide, however, this peptide is an excellent substrate for a number of protein kinases, including protein kinase C and calmodulin dependent protein kinase II (Kemp, B. E. and Pearson, R. B. (1991) in Protein Phosphorylation, Hunter, T and Sefton, B. M. (eds) Methods in Enzymology, 200, 121-134). The myosin light chain peptides tested were phosphorylated with rates approximately 15% of the SAMS peptide.
The AMPK was assayed in accordance with procedures described by Davies et al. (1989) Eur. J. Biochem. 186, 123-128 using the SAMS peptide substrate, HMRSAMSGLHLVKRR-amide (SEQ ID NO: 49). The enzyme was diluted in diluting buffer (20 mM HEPES pH 7.0, 0.1% (v/v) Triton X-100) prior to assay and the reactions were initiated by adding […] diluted enzyme to the reaction mixture containing peptide substrate. The reactions were stopped by withdrawing […] aliquots and applying to P81 papers in accordance with procedures described by Pearson, R. B., Mitchelhill, K. I., and Kemp, B. E. (1993) in Protein Phosphorylation: A Practical Approach, Hardie, G. D. (ed) Oxford University Press, pp 265-291.

The next data set deals with AMPK α2. It is filed as biochemical, rat. The settings on record: alpha2 immune precipitates.
The test system of the next data set is AMPK α1. In kind it is biochemical, rat. The conditions noted are these: alpha1 immune precipitates, 200 µM.
In data set [1] the target is SAMS peptide. The conditions noted are these: scale: % of the SAMS peptide phosphotransferase activity of rat liver.
Data set [2] deals with glycogen synthase peptide.
In data set [3] the target is ADR1(225-234) peptide (Saccharomyces cerevisiae (strain ATCC 204508 / S288c) (Baker's yeast)) (UniProt P07248).
Data set [4] deals with SAMS peptide.
Data set [5] has as its target myosin light chain peptides.
Data set [6] deals with ADR1(222-234)P229 peptide.
Data set [7] addresses SAMS peptide. This is another data set of the same source.

Values joined by “and” are separate entries in the source; they are usually repeats but may differ in a detail not shown here. Equal entries are not always repeated. Where no end group is shown, it is not given here.

On to “LKKLTLRASFSAQ (not fully specified) [ADR1(222-234)^P229]”, for which, in the data set with AMPK, the “rate of phosphorylation relative to the SAMS peptide” value is on record as “approximately 50%”; the Km (as a rule, the substrate concentration at which the rate is half of its maximum) was ~3 µM and 3 µM.
As for “ADR1(225-234): synthetic ADR1 peptide screened as AMPK substrate (LTRRASFSAQ)”, the “rate of phosphorylation relative to the SAMS peptide” value with AMPK is reported as “approximately 50%”.
In the case of `Nc1ncnc2c1ncn2[C@@H]1O[C@H](COP(=O)(O)O)[C@@H](O)[C@H]1O` [5'-AMP], the “activation by 5'-AMP” value is reported as 3-4 fold in the data set on AMPK α2 and 2-3 fold in the data set on AMPK α1.
Regarding “AMPK α1 isoform holoenzyme purified from liver by peptide substrate affinity chromatography (63 kDa catalytic subunit, 40 kDa and 38 kDa subunits) (from UniProt P54645)”, the SAMS peptide phosphotransferase activity with SAMS peptide [1] was over 94.
“HMRSAMSGLHLVKRR-amide (HMRSAMSGLHLVKRR-NH2) [SAMS peptide]”: in the data set with AMPK, the Km is 33 µM.
In turn, “AMPK, partially purified enzyme (purified to the DE-52 step)” yielded a rate of phosphorylation (% of the rate of the SAMS peptide) in data set [2] of 40. The rate of phosphorylation (% of the SAMS peptide) in [3] turned out to be 50; in data set [5], 15. In addition, the results for the apparent Km of phosphorylation (with SAMS peptide [4]; in [6]) were 33 µM and 3 µM, respectively.
Consider “PLSRTLSVAAKK [glycogen synthase peptide]”, for which the “rate of phosphorylation relative to the SAMS peptide” value with AMPK is “approximately 40%”.
Take “AMPK α2 isoenzyme of rat liver (α2 with β and γ subunits), from the unbound fraction of the peptide substrate affinity column (from UniProt Q09137)”: the apparent specific activity with SAMS peptide [7] and with acetyl CoA carboxylase was over 20 fold lower throughout.
